# Laboratory results reported in paper PMC3573116 (PLoS Pathogens, 2013).
# Target: T1, DENV2 D2S10 envelope (E) protein on virions (dengue virus 2 (DENV2), strain D2S10)
# T1 construct: also called DENV2 virions
# Assay: ELISA
# Conditions: one partner purified
row,Binder,Kd [nM]
1,"chimeric human-mouse MAb E87 (human IgG1), non-modified (antibody, V domains shown, source: HEK-293T, transfected, purified from supernatant (protein A)) VH: QVQLQQPGADLVRPGTSVKLSCKASGYTFTIYWMHWVKQRPGQGLEWIGVIDPSAGYTNYSQNFKDKATLTVDTSSSTAYMQLNSLTSEDSAVYYCARHGHYFGTSYWYFDVWGTGTTVTVSS VL: DIVMSQSPSSLAVSVGEKVTMRCKSSQSLLYSRNQKNYLAWYQQKPGQSPKVLIYWASTRESGVPDRFTGSGSGTDFTLTISSVKTEDLSVYYCQQYYSYPFTFGSGTKLEIK",1.07
2,"chimeric human-mouse MAb E87 N297Q (human IgG1, aglycosylated) (antibody, V domains shown, source: HEK-293T, transfected, purified from supernatant (protein A)) VH: QVQLQQPGADLVRPGTSVKLSCKASGYTFTIYWMHWVKQRPGQGLEWIGVIDPSAGYTNYSQNFKDKATLTVDTSSSTAYMQLNSLTSEDSAVYYCARHGHYFGTSYWYFDVWGTGTTVTVSS VL: DIVMSQSPSSLAVSVGEKVTMRCKSSQSLLYSRNQKNYLAWYQQKPGQSPKVLIYWASTRESGVPDRFTGSGSGTDFTLTISSVKTEDLSVYYCQQYYSYPFTFGSGTKLEIK",1.43
3,"chimeric human-mouse MAb E60 (human IgG1), non-modified (antibody, V domains shown, also called intact E60; E60 parent; source: HEK-293T, transfected, purified from supernatant (protein A)) VH: EVQVQQSGPELVTPGASVKISCKTSGYTFTEYTVHWVKQSHGKSLEWIGGINPTSGGTNYNQRFRGKATLTVDRSSSTAYMELRSLTSEDSAVYFCAGTLYGYPFDFWGQGTTLTVSS VL: DILMTQSPSSMSVSLGDSVSITCHASQGISGNIGWLQQKPGKSFKGLIYHGTNLEEGVPSRFSGSGSGADYSLTISSLESEDFADYYCVQYGQFPPTFGGGTKLEIK",1.14
4,"chimeric human-mouse MAb E60 N297Q (human IgG1, aglycosylated) (antibody, V domains shown, also called modified E60; source: HEK-293T, transfected, purified from supernatant (protein A)) VH: EVQVQQSGPELVTPGASVKISCKTSGYTFTEYTVHWVKQSHGKSLEWIGGINPTSGGTNYNQRFRGKATLTVDRSSSTAYMELRSLTSEDSAVYFCAGTLYGYPFDFWGQGTTLTVSS VL: DILMTQSPSSMSVSLGDSVSITCHASQGISGNIGWLQQKPGKSFKGLIYHGTNLEEGVPSRFSGSGSGADYSLTISSLESEDFADYYCVQYGQFPPTFGGGTKLEIK",1.18
5,"human MAb 87.1 LALA (IgG1) (antibody, V domains shown, source: HEK-293T, purified (protein A, size-exclusion chromatography)) VH: EVQLVESGGGLVQPGRSLRLSCAASGFTFDDYAMFWVRQAPGKGLEWISGISWNSATIGYADSVKGRFTISRDNAKKSLDLQMNSLRPDDTALYYCAKGGPRGLQLLSSWVDYWGQGTLVTVSS VL: DIQMTQSPSSLSASVGDRVTITCRASQDIRRYLNWYQQRPGRVPQLLIYTTSTLQSGVPSRFSGSGSVTDFTLTISSLQPEDFGTYYCQQSYSPPHTFGQGTKLEIK",0.34
6,"chimeric human-mouse MAb E76 (human IgG1), non-modified (antibody, V domains shown, source: HEK-293T, transfected, purified from supernatant (protein A)) VH: QVTLKESGPGILQSSQTLSLTCSFSGFSLSTSSMGVSWIRQPSGKGLEWLAHIYWDDDKRYSPSLKSRLTISKDTSRNQVFLKITSVENVDSATYYCARKDGYVPYSLDYWGQGISVTVSS VL: DIVMTQSHKFMSTSVGDRVSISCKASQAVGTAVAWYQQKPGQSPKLLIYWASTRHTGVPDRFTGSGSGTDFTLTINNVQSEDLADYFCHQYTSYPLTFGTGTKLELK",0.84
7,"chimeric human-mouse MAb E76 N297Q (human IgG1, aglycosylated) (antibody, V domains shown, source: HEK-293T, transfected, purified from supernatant (protein A)) VH: QVTLKESGPGILQSSQTLSLTCSFSGFSLSTSSMGVSWIRQPSGKGLEWLAHIYWDDDKRYSPSLKSRLTISKDTSRNQVFLKITSVENVDSATYYCARKDGYVPYSLDYWGQGISVTVSS VL: DIVMTQSHKFMSTSVGDRVSISCKASQAVGTAVAWYQQKPGQSPKLLIYWASTRHTGVPDRFTGSGSGTDFTLTINNVQSEDLADYFCHQYTSYPLTFGTGTKLELK",1.1
8,"chimeric human-mouse MAb E28 (human IgG1), non-modified (antibody, V domains shown, source: HEK-293T, transfected, purified from supernatant (protein A)) VH: QIQLVQSGPELKKPGETVKISCKASGYTFTDYSMHWVKQTPGKGLKWLGWINPKTGEPTYVDDFKGRFAFYLETSSSTAYLQITNLKNEDTATYFCARGYDYYSVDYWGQGTLVTVSS VL: DIQMTQTTSSLSASLGARVTISCRANQDINNYLHWYQQKPDGTIKLLVYYTSGLHSGVPSRFIGSGSGTDYSLTITNLEQEDIATYFCQQGNTLPLTFGAGTKLELK",2.7
9,"chimeric human-mouse MAb E28 N297Q (human IgG1, aglycosylated) (antibody, V domains shown, source: HEK-293T, transfected, purified from supernatant (protein A)) VH: QIQLVQSGPELKKPGETVKISCKASGYTFTDYSMHWVKQTPGKGLKWLGWINPKTGEPTYVDDFKGRFAFYLETSSSTAYLQITNLKNEDTATYFCARGYDYYSVDYWGQGTLVTVSS VL: DIQMTQTTSSLSASLGARVTISCRANQDINNYLHWYQQKPDGTIKLLVYYTSGLHSGVPSRFIGSGSGTDYSLTITNLEQEDIATYFCQQGNTLPLTFGAGTKLELK",2.88
10,"human MAb 82.11 LALA (IgG1) (antibody, V domains shown, source: HEK-293T, purified (protein A, size-exclusion chromatography)) VH: QAHLVESGGGVVQPGRSLRLSCAASAFNFSTNAMHWVRQAPGKGLEWVAVISYDGSHKYYADSVKGRFTISRDNSKNTLYLQMNSLRAADTAVYYCATVGVLTWPVNAEYFHHWGQGSLVSVSS VL: QSVLTQPPSVSGAPGQRVTISCTGSSSNIGAGYDVHWYQQLPGTAPKLLICGNNNRPSGVPDRFSGSKSGTSASLAITGLQAEDEADYYCQSYDSSLTGVVFGGGTKLTVL",0.91
11,"chimeric human-mouse MAb E18 (human IgG1), non-modified (antibody, V domains shown, source: HEK-293T, transfected, purified from supernatant (protein A)) VH: QIQLVQSGPELKKPGETVKISCKASGYTFTDYSMHWVKQAPGKGLKWMGWFNTETGEPTYADDFKGRFAFSLETSASTAFLQINNLKNEDTATYFCARGGDFYSVDYWGQGTSVTVSS VL: DIQMTQTTSSLSASLGDRVTISCRASQDITNYLNWYQQKPDGTVKLLIYYTSGLHSGVPSRFSGSGSGTDYSLTISNLEQEDIATYFCQQGNTLPPTFGGGTKLEIK",2.74
12,"chimeric human-mouse MAb E18 N297Q (human IgG1, aglycosylated) (antibody, V domains shown, source: HEK-293T, transfected, purified from supernatant (protein A)) VH: QIQLVQSGPELKKPGETVKISCKASGYTFTDYSMHWVKQAPGKGLKWMGWFNTETGEPTYADDFKGRFAFSLETSASTAFLQINNLKNEDTATYFCARGGDFYSVDYWGQGTSVTVSS VL: DIQMTQTTSSLSASLGDRVTISCRASQDITNYLNWYQQKPDGTVKLLIYYTSGLHSGVPSRFSGSGSGTDYSLTISNLEQEDIATYFCQQGNTLPPTFGGGTKLEIK",3.46
13,"chimeric human-mouse MAb E44 (human IgG1), non-modified (antibody, V domains shown, source: HEK-293T, transfected, purified from supernatant (protein A)) VH: QVQLKESGPGLVAPSQSLSITCTVSGFSLTSYGVDWVRQSPGKGLEWLGVIWGAGSTNYNSAFRSRLSISKDNSKSQVFLKMNSLQTDDTAMYYCASGTGTGAMDYWGQGTSVTVSS VL: DIVLTQSPATLSVTPGDSVSLSCRASQSISNNLHWYQQKSHESPRLLIFYSSQSISGIPSRFSGSGSGTDFTLRINSVETEDFGMYFCQQSNNWPHTFGRGTKLDMK",0.14
14,"chimeric human-mouse MAb E44 N297Q (human IgG1, aglycosylated) (antibody, V domains shown, source: HEK-293T, transfected, purified from supernatant (protein A)) VH: QVQLKESGPGLVAPSQSLSITCTVSGFSLTSYGVDWVRQSPGKGLEWLGVIWGAGSTNYNSAFRSRLSISKDNSKSQVFLKMNSLQTDDTAMYYCASGTGTGAMDYWGQGTSVTVSS VL: DIVLTQSPATLSVTPGDSVSLSCRASQSISNNLHWYQQKSHESPRLLIFYSSQSISGIPSRFSGSGSGTDFTLRINSVETEDFGMYFCQQSNNWPHTFGRGTKLDMK",0.84
